Patent US20030143191A1 (published 2003)

Target: T1, CCR5 (G-protein coupled chemokine receptor) on human PBMC (human, UniProt P51681 1-352)
T1 construct: whole, on cells; The cells were primary PBMC, not transfectants, so the receptor is assigned through the CCR5 agonist MIP-1β; also called G-protein Chemokine Receptor CCR5
Test: 125I-MIP-1β competition binding on human PBMC cultured 2 days; labelled competitor 0.17 nM 125I-MIP-1β; cells preincubated with supernatant 45 min at 37 °C, then hot ligand 60 min at RT; cell pellet collected by density centrifugation through oil; readout cpm
Description: Human PBMC were purified from whole blood and cultured for 2 days. […] After 60 minutes, cell bound ¹²⁵I-MIP-1 was separated from unbound ¹²⁵I-MIP-1, and the radioactivity determined.
PBMCs were grown, purified, and suspended in calcium buffer as described above in Example 49.

T1 sequence (P51681 whole entry): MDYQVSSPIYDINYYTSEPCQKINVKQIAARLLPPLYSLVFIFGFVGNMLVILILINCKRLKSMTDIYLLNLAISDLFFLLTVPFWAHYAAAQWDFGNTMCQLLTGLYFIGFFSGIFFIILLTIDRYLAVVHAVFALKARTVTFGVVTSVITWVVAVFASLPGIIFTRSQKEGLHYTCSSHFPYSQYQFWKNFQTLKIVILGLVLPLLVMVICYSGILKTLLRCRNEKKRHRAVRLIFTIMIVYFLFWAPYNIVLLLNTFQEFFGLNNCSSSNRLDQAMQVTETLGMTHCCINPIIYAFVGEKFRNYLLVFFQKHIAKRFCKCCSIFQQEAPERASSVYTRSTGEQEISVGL

B1: Ckb1 construct 1832 (pC4:MPIFsp.CKB1(G28-N93)), secreted product ck-beta-1 G28-N93 (ligand)
chain: GPYHPSECCFTYTTYKIPRQRIMDYYETNSQCSKPGIVFITKRGHSVCTNPSDKWVQDYIKDMKEN
notes: Non-fusion Ckb1, expressed in mammalian cells from pC4
B1: binds.
